From patent US20210253718A1 (MODMAB THERAPEUTICS, published 2021) come the findings set out here.

In one test the target is FZD7-Fc (UniProt O75084 33-185). Briefly: SPR, Frizzled-Fc chimera.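 Note: binding targets are Fc fusions carrying an extracellular Frizzled fragment that contains the CRD.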
A further test concerns the target T1, FZD1-Fc (UniProt Q9UP38 73-250, limits assumed).
T1 construct: extracellular domain; also called Frizzled-Fc chimera (FZD1); not shown: Fc part
Briefly: SPR, Frizzled-Fc chimera.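 Note: binding targets are Fc fusions carrying an extracellular Frizzled fragment that contains the CRD.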

Another test has as its target T2, FZD2-Fc (UniProt Q14332 24-190, limits assumed).
T2 construct: extracellular domain; also called Frizzled-Fc chimera (FZD2); not shown: Fc part
Briefly: SPR, Frizzled-Fc chimera.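 Note: binding targets are Fc fusions carrying an extracellular Frizzled fragment that contains the CRD.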 A general note: In SPR one partner is held on a chip, and binding of the other changes the refractive index at the surface.

For test [1], the target named is T3, recombinant human FZD5-Fc chimera (R&D Systems, Catalog no. 1617-FZ) (human, UniProt Q13467 27-167).
T3 construct: used for selection and ELISA; Fc part of the bought chimera not given
T3 sequence: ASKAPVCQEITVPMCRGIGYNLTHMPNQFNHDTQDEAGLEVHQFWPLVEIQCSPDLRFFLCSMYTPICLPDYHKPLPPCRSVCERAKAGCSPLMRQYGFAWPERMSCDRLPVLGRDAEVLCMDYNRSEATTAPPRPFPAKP
Kind of test: SPR, Frizzled-Fc chimera.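 Note: binding targets are Fc fusions carrying an extracellular Frizzled fragment that contains the CRD.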

A further test concerns the target T4, FZD8-Fc (UniProt Q9H461 28-158, limits assumed).
T4 construct: extracellular domain; also called Frizzled-Fc chimera (FZD8); not shown: Fc part
T4 sequence (looked up): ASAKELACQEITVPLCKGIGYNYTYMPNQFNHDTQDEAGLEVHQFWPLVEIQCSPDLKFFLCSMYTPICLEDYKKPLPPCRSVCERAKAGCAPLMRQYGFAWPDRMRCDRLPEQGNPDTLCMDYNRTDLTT
Briefly: SPR, Frizzled-Fc chimera.

Test [2] addresses T5, FZD9 cysteine-rich domain (CRD), MYC-tagged and GPI-anchored on CHO cells (human, UniProt O00144 35-161, GPI anchor).
T5 construct: also called FZD9 CRD; CHO-myc-FZDGPI; not shown: MYC tag and GPI anchor signal
T5 sequence: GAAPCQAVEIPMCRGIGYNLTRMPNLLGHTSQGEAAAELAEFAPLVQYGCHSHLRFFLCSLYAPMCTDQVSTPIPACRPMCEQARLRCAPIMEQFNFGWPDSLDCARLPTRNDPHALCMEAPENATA
Briefly: flow cytometry on CHO-GPI cells over-expressing the Frizzled CRD.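 Note: binding of recombinant anti-Frizzled Fabs to the cells, read as fold mean fluorescence intensity above secondary-antibody-only background and normalized to control CHO-GPI cells.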 For orientation: A flow cytometer gives signals particle by particle.

For test [3], the target named is T6, FZD3 cysteine-rich domain (CRD), MYC-tagged and GPI-anchored on CHO cells (human, UniProt Q9NPG1 24-150, GPI anchor).
T6 construct: domain: cysteine-rich domain (CRD); also called FZD3 CRD; CHO-myc-FZDGPI; not shown: MYC tag and GPI anchor signal
T6 sequence (looked up): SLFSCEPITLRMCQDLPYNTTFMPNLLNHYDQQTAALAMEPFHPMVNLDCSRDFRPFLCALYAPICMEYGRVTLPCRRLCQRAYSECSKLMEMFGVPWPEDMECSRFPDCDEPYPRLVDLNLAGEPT
Described as above.

The target in test [4] is T7, FZD8 cysteine-rich domain (CRD), MYC-tagged and GPI-anchored on CHO cells (human, UniProt Q498S8 31-155 (rat entry), GPI anchor).
T7 construct: also called FZD8 CRD; CHO-myc-FZDGPI; not shown: MYC tag and GPI anchor signal
T7 sequence: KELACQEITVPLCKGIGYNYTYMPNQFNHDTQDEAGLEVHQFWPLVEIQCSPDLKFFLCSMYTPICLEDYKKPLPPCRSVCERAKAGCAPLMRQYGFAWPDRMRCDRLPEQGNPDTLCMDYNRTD
The description is as above.

The target of test [5] is T8, FZD1 cysteine-rich domain (CRD), MYC-tagged and GPI-anchored on CHO cells (human). Described as above.
Test [6] addresses T9, FZD2 cysteine-rich domain (CRD), MYC-tagged and GPI-anchored on CHO cells (human, UniProt Q14332 35-161). The test is described as above.
For test [7], the target named is T10, FZD6 cysteine-rich domain (CRD), MYC-tagged and GPI-anchored on CHO cells (human, UniProt O60353 20-146, GPI anchor).
T10 construct: also called FZD6 CRD; CHO-myc-FZDGPI; not shown: MYC tag and GPI anchor signal
T10 sequence: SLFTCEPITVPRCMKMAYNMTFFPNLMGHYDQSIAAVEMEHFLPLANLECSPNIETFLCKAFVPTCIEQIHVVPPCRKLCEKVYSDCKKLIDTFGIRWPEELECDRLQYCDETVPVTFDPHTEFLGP
The test is described as above.

The target in test [8] is T11, FZD10 cysteine-rich domain (CRD), MYC-tagged and GPI-anchored on CHO cells (human, UniProt Q9ULW2 30-156, GPI anchor).
T11 construct: also called FZD10 CRD; CHO-myc-FZDGPI; not shown: MYC tag and GPI anchor signal
T11 sequence: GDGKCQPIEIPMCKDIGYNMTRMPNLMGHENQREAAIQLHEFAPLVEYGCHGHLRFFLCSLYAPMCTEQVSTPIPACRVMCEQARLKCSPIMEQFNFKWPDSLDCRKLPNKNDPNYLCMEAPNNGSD
Described as above.

The target of test [9] is T12, FZD4 cysteine-rich domain (CRD), MYC-tagged and GPI-anchored on CHO cells (human, UniProt Q9ULV1 42-167, GPI anchor).
T12 construct: also called FZD4 CRD; CHO-myc-FZDGPI; not shown: MYC tag and GPI anchor signal
T12 sequence: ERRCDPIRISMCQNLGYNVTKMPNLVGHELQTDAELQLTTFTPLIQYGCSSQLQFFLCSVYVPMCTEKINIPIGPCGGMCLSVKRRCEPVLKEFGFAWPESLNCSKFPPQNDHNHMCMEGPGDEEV
The description is as above.

For test [10], the target named is T13, FZD7 cysteine-rich domain (CRD), MYC-tagged and GPI-anchored on CHO cells (human, UniProt O75084 45-169). The description is as above.
Test [11] deals with T14, FZD5 cysteine-rich domain (CRD), MYC-tagged and GPI-anchored on CHO cells (human, UniProt Q13467 29-156, GPI anchor).
T14 construct: also called FZD5 CRD; CHO-myc-FZDGPI; not shown: MYC tag and GPI anchor signal
T14 sequence: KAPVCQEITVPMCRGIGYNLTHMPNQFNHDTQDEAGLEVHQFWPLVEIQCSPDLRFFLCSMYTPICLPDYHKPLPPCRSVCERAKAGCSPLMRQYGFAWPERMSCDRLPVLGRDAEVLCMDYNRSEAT
Described as above.

Test [12] addresses T5, FZD9 cysteine-rich domain (CRD), …. Kind of test: flow cytometry, CHO-CRD cells.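 Note: flow cytometry of Fab binding to CHO cells overexpressing a Frizzled CRD, with binding defined as median fluorescence over twice that of CHO cells lacking any Frizzled CRD.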
Test [13] has as its target T6, FZD3 cysteine-rich domain (CRD), …. Kind of test: flow cytometry, CHO-CRD cells.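 Note: flow cytometry of Fab binding to CHO cells overexpressing a Frizzled CRD, with binding defined as median fluorescence over twice that of CHO cells lacking any Frizzled CRD.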
In test [14] the target is T7, FZD8 cysteine-rich domain (CRD), …. Kind of test: flow cytometry, CHO-CRD cells.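 Note: flow cytometry of Fab binding to CHO cells overexpressing a Frizzled CRD, with binding defined as median fluorescence over twice that of CHO cells lacking any Frizzled CRD.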
Test [15] has as its target T8, FZD1 cysteine-rich domain (CRD), …. Briefly: flow cytometry, CHO-CRD cells.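 Note: flow cytometry of Fab binding to CHO cells overexpressing a Frizzled CRD, with binding defined as median fluorescence over twice that of CHO cells lacking any Frizzled CRD.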
Test [16] addresses T9, FZD2 cysteine-rich domain (CRD), …. Briefly: flow cytometry, CHO-CRD cells.
For test [17], the target named is T10, FZD6 cysteine-rich domain (CRD), …. Briefly: flow cytometry, CHO-CRD cells.
Test [18] deals with T11, FZD10 cysteine-rich domain (CRD), …. Briefly: flow cytometry, CHO-CRD cells.
The target in test [19] is T12, FZD4 cysteine-rich domain (CRD), …. Kind of test: flow cytometry, CHO-CRD cells.
Test [20] deals with T13, FZD7 cysteine-rich domain (CRD), …. Kind of test: flow cytometry, CHO-CRD cells.
Test [21] deals with T14, FZD5 cysteine-rich domain (CRD), …. Briefly: flow cytometry, CHO-CRD cells.

T1 sequence (Q9UP38 73-250 limits assumed): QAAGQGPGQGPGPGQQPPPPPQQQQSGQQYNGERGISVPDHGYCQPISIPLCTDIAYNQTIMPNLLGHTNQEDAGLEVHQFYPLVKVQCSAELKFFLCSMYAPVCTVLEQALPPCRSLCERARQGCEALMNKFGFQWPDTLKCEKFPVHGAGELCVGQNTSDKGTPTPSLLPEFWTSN

B1: IgG-2916 (antibody, V domains shown)
VH: EVQLVESGGGLVQPGGSLRLSCAASGFNISYSSIHWVRQAPGKGLEWVASIYPSYSYTYYADSVKGRFTISADTSKNTAYLQMNSLRAEDTAVYYCARYGYYGMDYWGQGTLVTVSS
VL: DIQMTQSPSSLSASVGDRVTITCRASQSVSSAVAWYQQKPGKAPKLLIYSASSLYSGVPSRFSGSRSGTDFTLTISSLQPEDFATYYCQQWYHYPYLITFGQGTKVEIK
Usually Kd stands for the constant that tells how readily two partners part at equilibrium. Broadly, the koff is the rate constant with which the complex falls apart. The kon is a measure of how fast the partners come together. In the case of B1, the dissociation constant Kd with FZD7-Fc is 0.496 nM; with FZD1-Fc, 1.24 nM; in the test with FZD2-Fc, 0.905 nM; in [1], 0.00988 nM; with FZD8-Fc, 0.0455 nM. For the same molecule, the koff in the test with FZD7-Fc was determined as 0.000382 s⁻¹; with FZD1-Fc it was 0.000451 s⁻¹; in the test with FZD2-Fc, 0.000452 s⁻¹; in [1], 1.3e-05 s⁻¹; with FZD8-Fc, 4.75e-05 s⁻¹. For the same molecule, the association rate constant (kon) with FZD7-Fc worked out at 770000 M⁻¹ s⁻¹; with FZD1-Fc it was 364000 M⁻¹ s⁻¹; in the test with FZD2-Fc, 500000 M⁻¹ s⁻¹; in [1], 1.32e+06 M⁻¹ s⁻¹; in the test with FZD8-Fc, 1.04e+06 M⁻¹ s⁻¹.

B2: Fab-2919 (Fab, V domains shown)
VH: EVQLVESGGGLVQPGGSLRLSCAASGFNISYSYIHWVRQAPGKGLEWVASIYSSSGSTSYADSVKGRFTISADTSKNTAYLQMNSLRAEDTAVYYCARGAIDYWGQGTLVTVSS
VL: DIQMTQSPSSLSASVGDRVTITCRASQSVSSAVAWYQQKPGKAPKLLIYSASSLYSGVPSRFSGSRSGTDFTLTISSLQPEDFATYYCQQWYSSGHVLITFGQGTKVEIK
notes: Fab
Turning to B2, the binding result in [2], in test [3], in test [5], in [6], in test [7] and in test [8] was “no binding (tested: 200 nM)” throughout. The binding result in test [9] and in test [10] was “no binding (tested: 200 nM)” each time. The “fold-increase in mean fluorescence intensity over background (secondary antibody alone), normalized to control CHO-GPI” value in [4] turned out to be 14.4 fold; in test [11], 19.2 fold. The median fluorescence was 2.79 in test [12]; 3.96 in [13]; 20.5 in test [14]; 3.52 in test [15]; 4.26 in test [16]; 2.64 in [17]. Also, the median fluorescence was determined as 2.48 in test [18], 3.79 in test [19], 2.41 in test [20] and 43.7 in [21].

B3: Fab-2928 (Fab, V domains shown)
VH: EVQLVESGGGLVQPGGSLRLSCAASGFNISYSSIHWVRQAPGKGLEWVASIYPSYSSTYYADSVKGRFTISADTSKNTAYLQMNSLRAEDTAVYYCARYYAMDYWGQGTLVTVSS
VL: DIQMTQSPSSLSASVGDRVTITCRASQSVSSAVAWYQQKPGKAPKLLIYSASSLYSGVPSRFSGSRSGTDFTLTISSLQPEDFATYYCQQAFYYPITFGQGTKVEIK
notes: Fab; also called Fv-2928
As for B3, the binding result in test [2], in test [3], in test [7], in test [8], in test [9] and in test [10] was “no binding (tested: 200 nM)” throughout. Moreover, the “fold-increase in mean fluorescence intensity over background (secondary antibody alone), normalized to control CHO-GPI” value in test [11] was 13 fold. Moreover, the median fluorescence in test [12] is 4.49; in test [13], 4.37; in test [17], 3.08; in test [18] it was 3.96; in [19], 5.19; in test [20], 5.94. In test [21], this molecule registered a median fluorescence of 42.9.
